Assay [1] deals with T1, human PCSK9 (proprotein convertase subtilisin kexin type 9) (human, UniProt Q8NBP7 31-692). The assay can be described thus: cell-based or functional assay.
Assay [2] concerns the target T1, human PCSK9 (proprotein convertase …). Put plainly: PCSK9:EGFA FRET, competitor EGFA peptide.
Assay [3] concerns the target cynomolgus monkey PCSK9 (cynomolgus monkey, UniProt A0A7N9D9N8 150-747). Put plainly: FRET, competitor EGFA peptide. The source says: (§1) Table 11 summarizes the overall data from these three FRET assays.
The target in assay [4] is T2, human PCSK9 (proprotein convertase subtilisin kexin type 9) (human, UniProt Q8NBP7 31-692).
T2 construct: Directly immobilized (SPR ProteOn), biotinylated (BLI), or in solution, depending on the assay; also called hPCSK9
The assay can be described thus: FRET, competitor EGFA peptide.
From the text: as §1

B1: 2381A08 (designed binder)
chain: MGVSDVPRDLEVVAATPTSLLISWDAPADGGYGYYRITYGETGGNSPVQEFTVPGSKGTATISGLKPGVDYTITVYAVEYDFPGAGYYHRPISINYRTEIDKPSQHHHHHH
In the case of B1, the “LDLR Depletion (% inhibition at 75 nM)” value in assay [1] was 91.4%. The same molecule yielded an EC50 in assay [2] of 3.6 nM.

B2: 2382E04 (designed binder)
chain: MGVSDVPRDLEVVAATPTSLLISWDAPAGGGYGYYRITYGETGGNSPVQEFTVPVSKGTATISGLKPGVDYTITVYAVEFTFPGAGYYHRPISINYRTEIDKPSQHHHHHH
As for B2, the “LDLR Depletion (% inhibition at 75 nM)” value in assay [1] was found to be 61.5%. This molecule came in with an EC50 in assay [2] of 3 nM.

B3: 2381C08 (designed binder)
chain: MGVSDVPRDLEVVAATPTSLLISWDAPADGAYGYYRITYGETGGNSPVQEFTVPVSKGTATISGLKPGVDYTITVYAVEFPYPFAGYYHRPISINYRTEIDKPSQHHHHHH
As for B3, the “LDLR Depletion (% inhibition at 75 nM)” value in assay [1] is 15.3%. This molecule also had an EC50 in assay [2] of 0.7 nM.

B4: 2382F02 (designed binder)
chain: MGVSDVPRDLEVVAATPTSLLISWDAPAGGGYGYYRITYGETGGNSPVQEFTVPVSKGTATISGLKPGVDYTITVYAVEFDFPGSGYYHRPISINYRTEIDKPSQHHHHHH
As to B4, the “LDLR Depletion (% inhibition at 75 nM)” value in assay [1] was -6.3%. Besides, in assay [2], the EC50 turned out to be 2.6 nM.

B5: 2382A01 (designed binder)
chain: MGVSDVPRDLEVVAATPTSLLISWAAPAGGGYGYYRITYGETGGNSPVQEFTVPVSKGTATISGLKPGVDYTITVYAVEYDFPGAGYYHRPISINYRTEIDKPSQHHHHHH
Regarding B5, the “LDLR Depletion (% inhibition at 75 nM)” value in assay [1] was found to be 120%. This molecule yielded a 50% effective concentration (EC50) in assay [2] of 12.9 nM.

B6: 2382H04 (designed binder)
chain: MGVSDVPRDLEVVAATPTSLLISWDAPAAGGYGYYRITYGETGGNSPVQEFTVPSSKGTATISGLKPGVDYTITVYAVEYDFPGAGYYHRPISINYRTEIDKPSQHHHHHH
For B6, in assay [1], the “LDLR Depletion (% inhibition at 75 nM)” value amounted to 68.2%. In addition, the EC50 in assay [2] is 3.2 nM.

B7: 2381B10 (designed binder)
chain: MGVSDVPRDLEVVAATPTSLLISWDAPAGGGYGYYRITYGETGGNSPVQEFTVPVSKGTATISGLKPGVDYTITVYAVEYNFIGAGYYHRPISINYRTEIDKPSQHHHHHH
For the molecule B7, in assay [1], the “LDLR Depletion (% inhibition at 75 nM)” value came out at 96.4%. For the same molecule, a half-maximal effect in assay [2] (EC50) was put at 7.3 nM.

B8: 2382F03 (designed binder)
chain: MGVSDVPRDLEVVAATPTSLLISWDAPAADAYGYYRITYGETGGNSPVQEFTVPVSKGTATISGLKPGVDYTITVYAVEFNFPGAGYYHRPISINYRTEIDKPSQHHHHHH
With B8, the “LDLR Depletion (% inhibition at 75 nM)” value in assay [1] was determined as 88.6%. In assay [2], this molecule came in with a half-maximal effective concentration (EC50) of 2.7 nM.

B9: 2381H06 (designed binder)
chain: MGVSDVPRDLEVVAATPTSLLISWGDVRTNEARQGYYRITYGETGGNSPLQGFTVPGSKGTATISGLKPGVDYTITVYAVEYTYEHSGYYHRPISINYRTEIDKPSQHHHHHH
In the case of B9, the “LDLR Depletion (% inhibition at 75 nM)” value in assay [1] stood at 53.4%. In addition, the EC50 in assay [2] was determined as 5 nM.

B10: 2381H01 (designed binder)
chain: MGVSDVPRDLEVVAATPTSLLISWSPRDSTGLVRRGYYRITYGETGGNSPVQQFTVPGSKGTATISGLKPGVDYTITVYAVEYPYDHSGYYHRPISINYRTEIDKPSQHHHHHH
On to B10, for which the “LDLR Depletion (% inhibition at 75 nM)” value in assay [1] came out at 22.2%. In assay [2], this molecule registered a concentration for a half-maximal effect (EC50) of 4 nM.

B11: 2381D02 (designed binder)
chain: MGVSDVPRDLEVVAATPTSLLISWEPFSRLPGGGEYYRITYGETGGNSPLQQFTVPGSKGTATISGLKPGVDYTITVYAVEYPYDHSGYYHRPISINYRTEIDKPSQHHHHHH
On to B11, for which the “LDLR Depletion (% inhibition at 75 nM)” value in assay [1] is 185%. Also, the EC50 in assay [2] was 3.1 nM.

B12: 2381B06 (designed binder)
chain: MGVSDVPRDLEVVAATPTSLLISWEPFSRLPGGGEYYRITYGETGGNSPLQQFTVPGSKGTATISGLKPGVDYTITVYAVEYPYPHSGYYHRPISINYRTEIDKPSQHHHHHH
In the case of B12, in assay [1], the “LDLR Depletion (% inhibition at 75 nM)” value is 120%. In addition, a half-maximal response in assay [2] (EC50) required 3.5 nM.

B13: 2381G03 (designed binder)
chain: MGVSDVPRDLEVVAATPTSLLISWEPFSRLPGGGEYYRITYGETGGNSPLQQFTVPGSKGTATISGLKPGVDYTITVYAVEFPYAHSGYYHRPISINYRTEIDKPSQHHHHHH
For B13, the “LDLR Depletion (% inhibition at 75 nM)” value in assay [1] worked out at 70.2%. Also, the EC50 in assay [2] was 3.4 nM.

B14: 2381A04 (designed binder)
chain: MGVSDVPRDLEVVAATPTSLLISWEPFSRLPGGGEYYRITYGETGGNSPLQQFTVPGSKGTATISGLKPGVDYTITVYAVEYPYPFSGYYHRPISINYRTEIDKPSQHHHHHH
Take B14: the “LDLR Depletion (% inhibition at 75 nM)” value in assay [1] was determined as 100%. This molecule came in with an EC50 in assay [2] of 3.3 nM.

B15: 2381H03 (designed binder)
chain: MGVSDVPRDLEVVAATPTSLLISWEPFSRLPGGGEYYRITYGETGGNSPLQQFTVPGSKGTATISGLKPGVDYTITVYAVEYPYAHSGYFHRPISINYRTEIDKPSQHHHHHH
B15: the “LDLR Depletion (% inhibition at 75 nM)” value in assay [1] is 89.8%. In addition, in assay [2], the response was half-maximal at 3.4 nM (EC50).

B16: 2382G03 (designed binder)
chain: MGVSDVPRDLEVVAATPTSLLISWDAPAEAEAYGYYRITYGETGGNSPVQEFTVPVSKGTATISGLKPGVDYTITVYAVEYVFPGAGYYHRPISINYRTEIDKPSQHHHHHH
B16: the “LDLR Depletion (% inhibition at 75 nM)” value in assay [1] was found to be 77.8%. The EC50 in assay [2] turned out to be 2.7 nM.

B17: 2381G06 (designed binder)
chain: MGVSDVPRDLEVVAATPTSLLISWSEKLDGKARRGYYRITYGETGGNSPVQQFTVPGSKGTATISGLKPGVDYTITVYAVEFPYDHSGYYHRPISINYRTEIDKPSQHHHHHH
As for B17, the “LDLR Depletion (% inhibition at 75 nM)” value in assay [1] was 57.7%. For the same molecule, in assay [2], the EC50 was 9 nM.

B18: 2451A10 (designed binder)
chain: MGVTDVPRDMEVVAATPTSLLISWQPPAVTYGYYRITYGETGGNSTLQQFTVPVYKGTATISGLKPGVDYTITVYAVEYPYDHSGYYHRPISINYRTEIDKPSQHHHHHH
Regarding B18, the “LDLR Depletion (% inhibition at 75 nM)” value in assay [1] was 53.7%. This molecule also came in with a half-maximal effective concentration (EC50) in assay [2] of 10.9 nM.

B19: 2451C11 (designed binder)
chain: MGIVDVPRDLEVVAATPTSLLISWDPPAGAYGYYRITYGETGGNSPKQQFTVPGYKGTATISGLKPGVDYTITVYAVEYPYDHSGYYHRPISINYRTEIDKPSQHHHHHH
As for B19, the “LDLR Depletion (% inhibition at 75 nM)” value in assay [1] came to 70.3%. In assay [2], this molecule had an EC50 of 9.7 nM.

B20: 1922G04(R25D) (designed binder)
chain: MGVSDVPRDLEVVAATPTSLLISWDPPSHAYGYYRITYGETGGNSPVQEFTVPIGKGTATISGLKPGVDYTITVYAVEYPWKGSGYYHRPISINYRTGSGSHHHHHH
notes: Anti-PCSK9 Adnectin, GSGS-His6 tail; the entry already carries the substitution
Turning to B20, the IC50 was 48.1 nM in assay [3] and 2.5 nM in assay [4].

B21: 1922G04(R25E) (designed binder)
chain: MGVSDVPRDLEVVAATPTSLLISWEPPSHAYGYYRITYGETGGNSPVQEFTVPIGKGTATISGLKPGVDYTITVYAVEYPWKGSGYYHRPISINYRTGSGSHHHHHH
notes: as for B20
B21: the IC50 in assay [3] was determined as 58.5 nM; in assay [4], 3.5 nM.

A word on the EC50: it is the concentration at which the effect is half-maximal. As usually defined, the IC50 is the point on the concentration scale where inhibition reaches its midpoint.

Source of the values: patent US20120094909A1 (Bristol-Myers Squibb, published 2012).
